Each block holds one binder with its values, some of them ahead of it. Starred links: 1 amine or outer side, 2 acyl side, 3 side chain; linkers in the order of their positions; H or OH if unused. Positions of bridges follow the written chain, without caps; N, C: chain ends. *: point of attachment. C20 diacid = O=C(O)CCCCCCCCCCCCCCCCCCC(=O)*; γGlu = O=C(O)[C@H](CCC(=O)[*:2])N[*:1]
Columns and labels:
[1] = biological target: T1, human amylin 3(a) receptor (human calcitonin receptor + RAMP-3) (human, UniProt P30988 25-474; O60896 24-148); assay: cell-based or functional assay
T1 sequence (looked up) 1: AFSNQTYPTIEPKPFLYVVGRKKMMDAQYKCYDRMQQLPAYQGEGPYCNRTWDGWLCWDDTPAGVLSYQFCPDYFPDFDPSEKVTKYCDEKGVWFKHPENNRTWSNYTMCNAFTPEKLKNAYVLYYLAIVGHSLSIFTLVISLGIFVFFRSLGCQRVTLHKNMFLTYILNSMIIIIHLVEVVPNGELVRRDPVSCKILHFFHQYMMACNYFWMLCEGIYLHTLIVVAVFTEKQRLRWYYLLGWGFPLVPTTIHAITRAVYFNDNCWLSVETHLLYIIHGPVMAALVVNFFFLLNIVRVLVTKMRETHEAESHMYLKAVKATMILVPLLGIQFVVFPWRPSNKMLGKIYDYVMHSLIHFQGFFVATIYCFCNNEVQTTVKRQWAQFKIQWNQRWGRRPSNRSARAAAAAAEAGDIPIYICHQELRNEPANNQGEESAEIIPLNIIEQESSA
T1 sequence (looked up) 2: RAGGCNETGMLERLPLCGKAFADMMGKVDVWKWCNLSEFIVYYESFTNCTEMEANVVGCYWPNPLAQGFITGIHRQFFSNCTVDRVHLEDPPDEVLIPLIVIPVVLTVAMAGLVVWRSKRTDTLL

[2] = biological target: T2, human calcitonin (a) receptor (human, UniProt P30988 25-474); assay: cell-based or functional assay
T2 sequence (looked up): T1 sequence (looked up) 1

Amylin receptor human EC50 [1]: 208 pM
CTa receptor human EC50 [2]: 160 pM
B2: N-alpha-[(S)-4-Carboxy-4-(19-carboxynonadecanoylamino)butyryl]-[Gly1,Glu14,His17,His35]-pramlintide (peptide)
peptide: {C20 diacid-γGlu}-GCNTATCATQRLAEFLHHSSNNFGPILPPTNVGSHTY-NH2
modifications: disulfide 2-7
SMILES: CC[C@H](C)[C@H](NC(=O)[C@@H]1CCCN1C(=O)CNC(=O)[C@H](Cc1ccccc1)NC(=O)[C@H](CC(N)=O)NC(=O)[C@H](CC(N)=O)NC(=O)[C@H](CO)NC(=O)[C@H](CO)NC(=O)[C@H](Cc1c[nH]cn1)NC(=O)[C@H](Cc1c[nH]cn1)NC(=O)[C@H](CC(C)C)NC(=O)[C@H](Cc1ccccc1)NC(=O)[C@H](CCC(=O)O)NC(=O)[C@H](C)NC(=O)[C@H](CC(C)C)NC(=O)[C@H](CCCNC(=N)N)NC(=O)[C@H](CCC(N)=O)NC(=O)[C@@H](NC(=O)[C@H](C)NC(=O)[C@@H]1CSSC[C@H](NC(=O)CNC(=O)CC[C@H](NC(=O)CCCCCCCCCCCCCCCCCCC(=O)O)C(=O)O)C(=O)N[C@@H](CC(N)=O)C(=O)N[C@@H]([C@@H](C)O)C(=O)N[C@@H](C)C(=O)N[C@@H]([C@@H](C)O)C(=O)N1)[C@@H](C)O)C(=O)N[C@@H](CC(C)C)C(=O)N1CCC[C@H]1C(=O)N1CCC[C@H]1C(=O)N[C@H](C(=O)N[C@@H](CC(N)=O)C(=O)N[C@H](C(=O)NCC(=O)N[C@@H](CO)C(=O)N[C@@H](Cc1c[nH]cn1)C(=O)N[C@H](C(=O)N[C@@H](Cc1ccc(O)cc1)C(N)=O)[C@@H](C)O)C(C)C)[C@@H](C)O

Amylin receptor human EC50 [1]: 52.5 pM
CTa receptor human EC50 [2]: 75 pM
B4: N-alpha-[(S)-4-Carboxy-4-(19-carboxynonadecanoylamino)butyryl]-Gly-[Arg1,Pro37]-pramlintide (peptide)
peptide: {C20 diacid-γGlu}-GRCNTATCATQRLANFLVHSSNNFGPILPPTNVGSNTP-NH2
modifications: disulfide 3-8
SMILES: CC[C@H](C)[C@H](NC(=O)[C@@H]1CCCN1C(=O)CNC(=O)[C@H](Cc1ccccc1)NC(=O)[C@H](CC(N)=O)NC(=O)[C@H](CC(N)=O)NC(=O)[C@H](CO)NC(=O)[C@H](CO)NC(=O)[C@H](Cc1c[nH]cn1)NC(=O)[C@@H](NC(=O)[C@H](CC(C)C)NC(=O)[C@H](Cc1ccccc1)NC(=O)[C@H](CC(N)=O)NC(=O)[C@H](C)NC(=O)[C@H](CC(C)C)NC(=O)[C@H](CCCNC(=N)N)NC(=O)[C@H](CCC(N)=O)NC(=O)[C@@H](NC(=O)[C@H](C)NC(=O)[C@@H]1CSSC[C@H](NC(=O)[C@H](CCCNC(=N)N)NC(=O)CNC(=O)CC[C@H](NC(=O)CCCCCCCCCCCCCCCCCCC(=O)O)C(=O)O)C(=O)N[C@@H](CC(N)=O)C(=O)N[C@@H]([C@@H](C)O)C(=O)N[C@@H](C)C(=O)N[C@@H]([C@@H](C)O)C(=O)N1)[C@@H](C)O)C(C)C)C(=O)N[C@@H](CC(C)C)C(=O)N1CCC[C@H]1C(=O)N1CCC[C@H]1C(=O)N[C@H](C(=O)N[C@@H](CC(N)=O)C(=O)N[C@H](C(=O)NCC(=O)N[C@@H](CO)C(=O)N[C@@H](CC(N)=O)C(=O)N[C@H](C(=O)N1CCC[C@H]1C(N)=O)[C@@H](C)O)C(C)C)[C@@H](C)O

Amylin receptor human EC50 [1]: 79.5 pM
CTa receptor human EC50 [2]: 106 pM
B5: N-alpha-[(S)-4-Carboxy-4-(19-carboxynonadecanoylamino)butyryl]-[des1,Glu14,His17,Pro37]-pramlintide (peptide)
peptide: {C20 diacid-γGlu}-CNTATCATQRLAEFLHHSSNNFGPILPPTNVGSNTP-NH2
modifications: disulfide 1-6
SMILES: CC[C@H](C)[C@H](NC(=O)[C@@H]1CCCN1C(=O)CNC(=O)[C@H](Cc1ccccc1)NC(=O)[C@H](CC(N)=O)NC(=O)[C@H](CC(N)=O)NC(=O)[C@H](CO)NC(=O)[C@H](CO)NC(=O)[C@H](Cc1c[nH]cn1)NC(=O)[C@H](Cc1c[nH]cn1)NC(=O)[C@H](CC(C)C)NC(=O)[C@H](Cc1ccccc1)NC(=O)[C@H](CCC(=O)O)NC(=O)[C@H](C)NC(=O)[C@H](CC(C)C)NC(=O)[C@H](CCCNC(=N)N)NC(=O)[C@H](CCC(N)=O)NC(=O)[C@@H](NC(=O)[C@H](C)NC(=O)[C@@H]1CSSC[C@H](NC(=O)CC[C@H](NC(=O)CCCCCCCCCCCCCCCCCCC(=O)O)C(=O)O)C(=O)N[C@@H](CC(N)=O)C(=O)N[C@@H]([C@@H](C)O)C(=O)N[C@@H](C)C(=O)N[C@@H]([C@@H](C)O)C(=O)N1)[C@@H](C)O)C(=O)N[C@@H](CC(C)C)C(=O)N1CCC[C@H]1C(=O)N1CCC[C@H]1C(=O)N[C@H](C(=O)N[C@@H](CC(N)=O)C(=O)N[C@H](C(=O)NCC(=O)N[C@@H](CO)C(=O)N[C@@H](CC(N)=O)C(=O)N[C@H](C(=O)N1CCC[C@H]1C(N)=O)[C@@H](C)O)C(C)C)[C@@H](C)O

The next lines start with the binder.

B1: N-alpha-[(S)-4-Carboxy-4-(19-carboxynonadecanoylamino)butyryl]-Gly-[Arg1,Glu14,His17,His35]-pramlintide (peptide)
peptide: {C20 diacid-γGlu}-GRCNTATCATQRLAEFLHHSSNNFGPILPPTNVGSHTY-NH2
modifications: disulfide 3-8
SMILES: CC[C@H](C)[C@H](NC(=O)[C@@H]1CCCN1C(=O)CNC(=O)[C@H](Cc1ccccc1)NC(=O)[C@H](CC(N)=O)NC(=O)[C@H](CC(N)=O)NC(=O)[C@H](CO)NC(=O)[C@H](CO)NC(=O)[C@H](Cc1c[nH]cn1)NC(=O)[C@H](Cc1c[nH]cn1)NC(=O)[C@H](CC(C)C)NC(=O)[C@H](Cc1ccccc1)NC(=O)[C@H](CCC(=O)O)NC(=O)[C@H](C)NC(=O)[C@H](CC(C)C)NC(=O)[C@H](CCCNC(=N)N)NC(=O)[C@H](CCC(N)=O)NC(=O)[C@@H](NC(=O)[C@H](C)NC(=O)[C@@H]1CSSC[C@H](NC(=O)[C@H](CCCNC(=N)N)NC(=O)CNC(=O)CC[C@H](NC(=O)CCCCCCCCCCCCCCCCCCC(=O)O)C(=O)O)C(=O)N[C@@H](CC(N)=O)C(=O)N[C@@H]([C@@H](C)O)C(=O)N[C@@H](C)C(=O)N[C@@H]([C@@H](C)O)C(=O)N1)[C@@H](C)O)C(=O)N[C@@H](CC(C)C)C(=O)N1CCC[C@H]1C(=O)N1CCC[C@H]1C(=O)N[C@H](C(=O)N[C@@H](CC(N)=O)C(=O)N[C@H](C(=O)NCC(=O)N[C@@H](CO)C(=O)N[C@@H](Cc1c[nH]cn1)C(=O)N[C@H](C(=O)N[C@@H](Cc1ccc(O)cc1)C(N)=O)[C@@H](C)O)C(C)C)[C@@H](C)O
Amylin receptor human EC50 [1]: 67.5 pM
CTa receptor human EC50 [2]: 89.5 pM

B3: N-alpha-[(S)-4-Carboxy-4-(19-carboxynonadecanoylamino)butyryl]-Gly-[Arg1,His35]-pramlintide (peptide)
peptide: {C20 diacid-γGlu}-GRCNTATCATQRLANFLVHSSNNFGPILPPTNVGSHTY-NH2
modifications: disulfide 3-8
SMILES: CC[C@H](C)[C@H](NC(=O)[C@@H]1CCCN1C(=O)CNC(=O)[C@H](Cc1ccccc1)NC(=O)[C@H](CC(N)=O)NC(=O)[C@H](CC(N)=O)NC(=O)[C@H](CO)NC(=O)[C@H](CO)NC(=O)[C@H](Cc1c[nH]cn1)NC(=O)[C@@H](NC(=O)[C@H](CC(C)C)NC(=O)[C@H](Cc1ccccc1)NC(=O)[C@H](CC(N)=O)NC(=O)[C@H](C)NC(=O)[C@H](CC(C)C)NC(=O)[C@H](CCCNC(=N)N)NC(=O)[C@H](CCC(N)=O)NC(=O)[C@@H](NC(=O)[C@H](C)NC(=O)[C@@H]1CSSC[C@H](NC(=O)[C@H](CCCNC(=N)N)NC(=O)CNC(=O)CC[C@H](NC(=O)CCCCCCCCCCCCCCCCCCC(=O)O)C(=O)O)C(=O)N[C@@H](CC(N)=O)C(=O)N[C@@H]([C@@H](C)O)C(=O)N[C@@H](C)C(=O)N[C@@H]([C@@H](C)O)C(=O)N1)[C@@H](C)O)C(C)C)C(=O)N[C@@H](CC(C)C)C(=O)N1CCC[C@H]1C(=O)N1CCC[C@H]1C(=O)N[C@H](C(=O)N[C@@H](CC(N)=O)C(=O)N[C@H](C(=O)NCC(=O)N[C@@H](CO)C(=O)N[C@@H](Cc1c[nH]cn1)C(=O)N[C@H](C(=O)N[C@@H](Cc1ccc(O)cc1)C(N)=O)[C@@H](C)O)C(C)C)[C@@H](C)O
Amylin receptor human EC50 [1]: 45 pM
CTa receptor human EC50 [2]: 87.5 pM

B6: N-alpha-[(S)-4-Carboxy-4-(19-carboxynonadecanoylamino)butyryl]-Gly-[Arg1,Glu14,Pro37]-pramlintide (peptide)
peptide: {C20 diacid-γGlu}-GRCNTATCATQRLAEFLVHSSNNFGPILPPTNVGSNTP-NH2
modifications: disulfide 3-8
SMILES: CC[C@H](C)[C@H](NC(=O)[C@@H]1CCCN1C(=O)CNC(=O)[C@H](Cc1ccccc1)NC(=O)[C@H](CC(N)=O)NC(=O)[C@H](CC(N)=O)NC(=O)[C@H](CO)NC(=O)[C@H](CO)NC(=O)[C@H](Cc1c[nH]cn1)NC(=O)[C@@H](NC(=O)[C@H](CC(C)C)NC(=O)[C@H](Cc1ccccc1)NC(=O)[C@H](CCC(=O)O)NC(=O)[C@H](C)NC(=O)[C@H](CC(C)C)NC(=O)[C@H](CCCNC(=N)N)NC(=O)[C@H](CCC(N)=O)NC(=O)[C@@H](NC(=O)[C@H](C)NC(=O)[C@@H]1CSSC[C@H](NC(=O)[C@H](CCCNC(=N)N)NC(=O)CNC(=O)CC[C@H](NC(=O)CCCCCCCCCCCCCCCCCCC(=O)O)C(=O)O)C(=O)N[C@@H](CC(N)=O)C(=O)N[C@@H]([C@@H](C)O)C(=O)N[C@@H](C)C(=O)N[C@@H]([C@@H](C)O)C(=O)N1)[C@@H](C)O)C(C)C)C(=O)N[C@@H](CC(C)C)C(=O)N1CCC[C@H]1C(=O)N1CCC[C@H]1C(=O)N[C@H](C(=O)N[C@@H](CC(N)=O)C(=O)N[C@H](C(=O)NCC(=O)N[C@@H](CO)C(=O)N[C@@H](CC(N)=O)C(=O)N[C@H](C(=O)N1CCC[C@H]1C(N)=O)[C@@H](C)O)C(C)C)[C@@H](C)O
Amylin receptor human EC50 [1]: 49.5 pM
CTa receptor human EC50 [2]: 50.5 pM

— US20130005646A1 (Novo Nordisk, published 2013)
